Numbering of substitutions follows the chain as printed.
B1: Fab 8B06 (Fab, V domains shown)
VH: QVQLVQSGGGVVQPGRSLRLSCAASGFTFSSYGMYWVRQAPGKGLEWVAVISYDGSNKYYADSVKGRFTISRDNSKNTLNLQMNSLRAEDTAVYYCAKGALTHWGVVIGDGMDVWGQGTTVTVSS
VL: NFMLTQPHSVSESPGKTVTISCRETELSRRLHYVRWYQQRPGSSPTTVIYEDDQRPSGVPDRFSGSIDSSSNSASLTISGLKTEDEADYYCQSFDSTNPWVFGGGTKLTVL
notes: Purified Fab prepared from IgG with the Pierce kit; also called 8B06 Fab
B2: 8A04 mAb (antibody, V domains shown)
VH: B1 VH
VL: B1 VL with R23M, E24R, E26G, L27T, S28G, R29N, R30K, L31G, V34T
notes: Formatted into an IgG1; also called 8A04 IgG1
B3: 8D04 mAb (antibody, V domains shown)
VH: B1 VH
VL: B1 VL with E24G, E26G, L27S, R29F, R30H, L31H, H32K
notes: Formatted into an IgG1; also called 8D04 IgG1
B4: 8D06 mAb (antibody, V domains shown)
VH: B1 VH
VL: B1 VL with R23V, E24L, T25S, E26P, L27R, S28T, R29H, R30A, L31G, V34Y
notes: Formatted into an IgG1; also called 8D06 IgG1
B5: 8G08 mAb (antibody, V domains shown)
VH: B1 VH
VL: B1 VL with R23I, E24S, T25N, E26D, L27V, S28P, R29A, R30S, L31G, V34H
notes: Formatted into an IgG1; also called 8G08 IgG1
B6: Fab 8A04 (Fab, V domains shown)
VH: B1 VH
VL: B1 VL with R23M, E24R, E26G, L27T, S28G, R29N, R30K, L31G, V34T
notes: Purified Fab prepared from IgG with the Pierce kit; also called 8A04 Fab
B7: Fab 8D04 (Fab, V domains shown)
VH: B1 VH
VL: B1 VL with E24G, E26G, L27S, R29F, R30H, L31H, H32K
notes: Purified Fab prepared from IgG with the Pierce kit; also called 8D04 Fab
B8: Fab 8G08 (Fab, V domains shown)
VH: B1 VH
VL: B1 VL with R23I, E24S, T25N, E26D, L27V, S28P, R29A, R30S, L31G, V34H
notes: Purified Fab prepared from IgG with the Pierce kit; also called 8G08 Fab
B9: 8B06 mAb (antibody, V domains shown)
VH: B1 VH
VL: B1 VL
notes: Formatted into an IgG1; also called 8B06 IgG1

What was measured:
biotinylated human PD-L1 [1] = biological target: T1, biotinylated human PD-L1 (human, UniProt Q9NZQ7 19-239, limits assumed, biotinylated (sites not given)); experiment: competition ELISA, Fab with biotinylated PD-L1 on coated PD-1-Fc, pH 6
T1 construct: Bought from R&D Systems; also called biotinylated-PD-L1; human PD-L1 biotin

biotinylated human PD-L1 [2] = biological target: T1, biotinylated human PD-L1; experiment: competition ELISA, Fab with biotinylated PD-L1 on coated PD-1-Fc; ratio of IC50 values
biotinylated human PD-L1 [3] = biological target: T1, biotinylated human PD-L1; experiment: competition ELISA, Fab with biotinylated PD-L1 on coated PD-1-Fc, pH 6; remark: listed apart in the source
human PD-L1-Fc protein [4] = biological target: T2, human PD-L1-Fc protein (human, UniProt Q9NZQ7 19-239); experiment: BIAcore off rate, unpurified periplasmic extract Fab on PD-L1, pH 7.4
T2 construct: Bought from R&D Systems; also called immobilised PD-L1-Fc; not shown: Fc part of the bought fusion protein, not described

human PD-L1-Fc protein [5] = biological target: T2, human PD-L1-Fc protein; experiment: BIAcore off rate, unpurified periplasmic extract Fab on PD-L1
human PD-L1-Fc protein [6] = biological target: T2, human PD-L1-Fc protein; experiment: ELISA, Fab on coated human PD-L1-Fc, pH 6
human PD-L1-Fc protein [7] = biological target: T2, human PD-L1-Fc protein; experiment: BIAcore off rate, unpurified periplasmic extract Fab on PD-L1, pH 6
human PD-L1 on cells [8] = biological target: T3, human PD-L1 on cells (human, UniProt Q9NZQ7 19-290); experiment: flow cytometry on MDA-MB-231 cells, Krebs buffer, pH 7.4
T3 construct: Endogenous on MDA-MB-231 cells or transfected into HEK293FF cells (Sino Biological plasmid); the assay field says which; also called native PD-L1 on MDA-MB-231 cells; PD-L1 expressing MDA-MB-231 cells
Procedure: (§1) Anti-PD-L1 affinity matured Fabs were tested for their ability to bind to native PD-L1 in a cell line, (MDA-MB-231 cells) in a buffer resembling the tumor microenvironment (Krebs-lactate).

biotinylated human PD-L1 [9] = biological target: T1, biotinylated human PD-L1; experiment: competition ELISA, Fab with biotinylated PD-L1 on coated PD-1-Fc, pH 6.5
biotinylated human PD-L1 [10] = biological target: T1, biotinylated human PD-L1; experiment: competition ELISA, Fab with biotinylated PD-L1 on coated PD-1-Fc
human PD-L1 on cells [11] = biological target: T3, human PD-L1 on cells; experiment: flow cytometry on MDA-MB-231 cells, Krebs buffer, pH 6
Procedure: as §1

human PD-L1-Fc protein [12] = biological target: T2, human PD-L1-Fc protein; experiment: ELISA, Fab on coated human PD-L1-Fc; ratio from extrapolating an OD of 0.3 at pH 6 versus pH 7.4
human PD-L1 on cells [13] = biological target: T3, human PD-L1 on cells; experiment: flow cytometry on MDA-MB-231 cells, Krebs buffer; ratio of EC50 values
Procedure: as §1

biotinylated human PD-L1 [14] = biological target: T1, biotinylated human PD-L1; experiment: competition ELISA, Fab with biotinylated PD-L1 on coated PD-1-Fc, pH 7.4
human PD-L1-Fc protein [15] = biological target: T2, human PD-L1-Fc protein; experiment: ELISA, purified Fab on coated human PD-L1-Fc, pH 6 (FIG. 4)
human PD-L1 on cells [16] = biological target: T3, human PD-L1 on cells; experiment: flow cytometry on MDA-MB-231 cells, Krebs buffer, pH 6.5
Procedure: as §1

human PD-L1-Fc protein [17] = biological target: T2, human PD-L1-Fc protein; experiment: ELISA, Fab on coated human PD-L1-Fc, pH 7.4
human PD-L1 on cells [18] = biological target: T3, human PD-L1 on cells; experiment: flow cytometry on MDA-MB-231 cells, Krebs-lactate buffer, pH 6 versus pH 7.4
Procedure: In order to mimic an acidic tumor environment milieu with tumor cells expressing PD-L1 (The metabolism of tumors in the body, Warburg et al. J Gen Physiol. 1927; 8:519-30) the following buffers were utilised: Krebs ringer bicarbonate buffer (KRB, Amsbio catalog number KRB-1000) with 1 mM lactic acid (Sigma catalog number 252476-50DG) for pH 7.4; KRB plus 15 mM lactic acid for pH 6.5 and KRB plus 20 mM lactic acid for pH 6.0). 3 fold dilutions (100 nM to 0.0005 nM; 0) of the Fabs or IgG were prepared in the respective pH buffers and incubated with 0.60E05 MDA-MB-231 cells for 60 minutes at 4° C. The cells were then washed 3× with the respective pH buffers, at 300 g for 3 min. The cells were then incubated with 50 μl of anti-human IgG (Fab specific)-FITC (Sigma, catalog number F5512-1ML) at 1:100 dilution in the respective pH buffers. Binding of the IgG or Fab to PD-L1 expressing cells was measured by FACS (Attune Nxt) and a total of 10.000 cells were acquired per sample.
as §1

human PD-L1 on cells [19] = biological target: T3, human PD-L1 on cells; experiment: flow cytometry on MDA-MB-231 cells, pH 6.5
human PD-L1 on cells [20] = biological target: T3, human PD-L1 on cells; experiment: flow cytometry on MDA-MB-231 cells, pH 7.4
human PD-L1 on cells [21] = biological target: T3, human PD-L1 on cells; experiment: flow cytometry on MDA-MB-231 cells, pH 6

T2 sequence (Q9NZQ7 19-239 limits assumed): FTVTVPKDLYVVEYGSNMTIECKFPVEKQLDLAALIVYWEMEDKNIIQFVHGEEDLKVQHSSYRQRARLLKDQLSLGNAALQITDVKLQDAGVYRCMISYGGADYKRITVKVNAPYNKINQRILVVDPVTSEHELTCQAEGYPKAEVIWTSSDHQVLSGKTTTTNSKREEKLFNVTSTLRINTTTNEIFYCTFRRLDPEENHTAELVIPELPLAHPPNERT
T1 sequence (Q9NZQ7 19-239 limits assumed): as above
T3 sequence (Q9NZQ7 19-290 limits assumed): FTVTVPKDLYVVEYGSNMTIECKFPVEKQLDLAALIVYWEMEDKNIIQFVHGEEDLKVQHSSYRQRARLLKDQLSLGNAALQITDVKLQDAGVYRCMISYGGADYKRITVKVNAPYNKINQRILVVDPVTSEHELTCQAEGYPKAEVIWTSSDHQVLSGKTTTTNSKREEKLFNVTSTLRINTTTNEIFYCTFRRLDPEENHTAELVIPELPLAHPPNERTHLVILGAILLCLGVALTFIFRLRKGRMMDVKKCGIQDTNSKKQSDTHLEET

Binder	IC50 (biotinylated human PD-L1 [1]) [nM]	Ratio pH 6:7.4 (biotinylated human PD-L1 [2])	fold less (IC50) than the control Fab 2.7A04OPT at pH 6 (biotinylated human PD-L1 [3]) [fold]	koff (human PD-L1-Fc protein [4]) [s⁻¹]	Ratio pH 6 vs 7.4 (human PD-L1-Fc protein [5])	EC50 (human PD-L1-Fc protein [6]) [nM]	koff (human PD-L1-Fc protein [7]) [s⁻¹]	EC50 (human PD-L1 on cells [8]) [nM]	IC50 (biotinylated human PD-L1 [9]) [nM]	fold less inhibitory activity at pH 6.5 than at pH 6 (biotinylated human PD-L1 [10]) [fold]	EC50 (human PD-L1 on cells [11]) [nM]	Ratio pH 6:7.4 (human PD-L1-Fc protein [12])	Ratio pH 6:7.4 (human PD-L1 on cells [13])	IC50 (biotinylated human PD-L1 [14]) [nM]	concentration at saturation of binding (human PD-L1-Fc protein [15]) [nM]	EC50 (human PD-L1 on cells [16]) [nM]	EC50 (human PD-L1-Fc protein [17]) [nM]	EC50 (human PD-L1 on cells [19]) [nM]	EC50 (human PD-L1 on cells [20]) [nM]	EC50 (human PD-L1 on cells [21]) [nM]	further results
B1	15.7	> 6.37	~3	0.0105	13	0.31	0.00135	> 100	52.7	~3	2	38	> 50	> 100	4	6.4	> 100	–	–	–	pH binding preference (fold) (human PD-L1 on cells [18]): > 100 fold
B2	–	–	–	–	–	–	–	–	–	–	–	–	–	–	–	–	–	0.11	0.09	0.09	–
B3	–	–	–	–	–	–	–	–	–	–	–	–	–	–	–	–	–	0.13	0.1	0.11	–
B4	–	–	–	–	–	–	–	–	–	–	–	–	–	–	–	–	–	0.11	0.08	0.11	–
B5	–	–	–	–	–	–	–	–	–	–	–	–	–	–	–	–	–	0.07	0.09	0.08	–
B6	12.2	6.66	~3	0.015	9	0.54	0.00131	> 100	29.4	~3	2.16	11	> 46.3	81.2	4	6.62	> 10	–	–	–	pH binding preference (fold) (human PD-L1 on cells [18]): > 100 fold
B7	42.3	> 2.36	–	0.0275	10	2.63	0.00283	> 100	> 100	–	13.5	9	> 7.41	> 100	4	56.4	> 100	–	–	–	fold less potent than Fabs 8D06, 8A04, 8G08 and 8B06 (biotinylated human PD-L1 [10]): ~3 fold; pH binding preference (fold) (human PD-L1 on cells [18]): > 100 fold
B8	12.1	> 8.26	~3	0.00308	27	0.1	0.000823	13.2	41.6	~3	1.58	53	8.35	> 100	4	2.95	> 100	–	–	–	–
B9	–	–	–	–	–	–	–	–	–	–	–	–	–	–	–	–	–	0.17	0.12	0.14	–

Reference: patent US20220356255A1 (CENTESSA PHARMACEUTICALS UK, published 2022)
